Reference: paper PMC8458453, “Structural basis of human PDZD8–Rab7 interaction for the ER-late endosome tethering” (Scientific Reports, 2021)
Positions count from the first letter of the chain named. Numbers in names are those of the source. Blank lines part the entries; values can stand above or below the binder they belong to.

Biological target: T1, human Rab7 Q67L (residues 2–195), GTP-loaded (human, UniProt P51149 2-195, Q67L)
T1 construct: Supplemented with 1 mM GTP; Mg2+ and GTP are seen in the structure; also called Rab7A; Rab7-GTP; source: E. coli BL21(DE3), purified (Ni-NTA, thrombin cleavage, SEC; same procedure as the PDZD8 CC)
T1 sequence (P51149 2-195 Q67L): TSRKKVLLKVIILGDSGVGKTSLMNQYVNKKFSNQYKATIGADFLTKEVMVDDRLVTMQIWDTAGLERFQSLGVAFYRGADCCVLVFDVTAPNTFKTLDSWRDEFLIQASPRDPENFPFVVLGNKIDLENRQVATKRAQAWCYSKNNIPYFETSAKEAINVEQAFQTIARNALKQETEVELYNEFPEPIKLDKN
Assay: ITC; 1 mM MBP-PDZD8 CC in the syringe injected (2 μl × 25) into 0.1 mM Rab7 in the cell; 20 °C; 20 mM Tris-HCl pH 7.5, 150 mM NaCl; Rab7 Q67L loaded with 1 mM GTP, Rab7 T22N with 1 mM GDP; two-site model for wild type, independent (single-site) model for mutants
Conditions: both partners purified

binding result: binds
B1: MBP-PDZD8 CC, residues 980–1123 (domain or fragment, human, UniProt Q8NEN9 980-1123, looked up)
chain: SDTEVCGPNSPSKRGNSTGIKLVRKEGGLDDSVFIAVKEIGRDLYRGLPTEERIQKLEFMLDKLQNEIDQELEHNNSLVREEKETTDTRKKSLLSAALAKSGERLQALTLLMIHYRAGIEDIETLESLSLDQHSKKISKYTDDT
notes: source: purified recombinant protein; not shown: His tag, N-terminal, kept; MBP, N-terminal, kept

Kd: 0.66 µM
B2: MBP-PDZD8 CC A1086R (domain or fragment, human, UniProt Q8NEN9 994-1123, looked up)
chain: GNSTGIKLVRKEGGLDDSVFIAVKEIGRDLYRGLPTEERIQKLEFMLDKLQNEIDQELEHNNSLVREEKETTDTRKKSLLSAALAKSGERLQRLTLLMIHYRAGIEDIETLESLSLDQHSKKISKYTDDT
notes: also called PDZD8 A1086R; source: purified recombinant protein; not shown: His tag, N-terminal, kept; MBP, N-terminal, kept

Kd: 9.2 µM
B3: MBP-PDZD8 CC I1092E (domain or fragment, human, UniProt Q8NEN9 994-1123, looked up)
chain: B2 chain with R93A, I99E
notes: also called PDZD8 I1092E; source: purified recombinant protein; not shown: His tag, N-terminal, kept; MBP, N-terminal, kept
